The labels stand for the following.
B1: EE-28 (peptide)
peptide: ACEMXFFQDCG
modifications: sarcosine (Sar) at position 5; free N-terminal amine; C-terminal amide; disulphide bond between Cys2 and Cys10
notes: EE-02 with G5 replaced by sarcosine
B2: EE-44 (CEMGFFADC) (peptide)
peptide: CEMGFFADC
HELM: PEPTIDE1{C.E.M.G.F.F.A.D.C.[am]}$PEPTIDE1,PEPTIDE1,1:R3-9:R3$$$V2.0
SMILES: CSCC[C@@H]1NC(=O)[C@H](CCC(=O)O)NC(=O)[C@@H](N)CSSC[C@@H](C(N)=O)NC(=O)[C@H](CC(=O)O)NC(=O)[C@H](C)NC(=O)[C@H](Cc2ccccc2)NC(=O)[C@H](Cc2ccccc2)NC(=O)CNC1=O
notes: EE-02 without A1 and G11 and with Q8A
B3: EE-23 (peptide)
peptide: ACEXGFFQDCG
HELM: PEPTIDE1{A.C.E.[O=C([C@H](CC1CCC1)N[*:1])[*:2]].G.F.F.Q.D.C.G.[am]}$PEPTIDE1,PEPTIDE1,2:R3-10:R3$$$V2.0
SMILES: C[C@H](N)C(=O)N[C@H]1CSSC[C@@H](C(=O)NCC(N)=O)NC(=O)[C@H](CC(=O)O)NC(=O)[C@H](CCC(N)=O)NC(=O)[C@H](Cc2ccccc2)NC(=O)[C@H](Cc2ccccc2)NC(=O)CNC(=O)[C@H](CC2CCC2)NC(=O)[C@H](CCC(=O)O)NC1=O
notes: EE-02 with M4 replaced by cyclobutylalanine
B4: EE-19 (peptide)
peptide: ACDMGFFQDCG
HELM: PEPTIDE1{A.C.D.M.G.F.F.Q.D.C.G.[am]}$PEPTIDE1,PEPTIDE1,2:R3-10:R3$$$V2.0
SMILES: CSCC[C@@H]1NC(=O)[C@H](CC(=O)O)NC(=O)[C@@H](NC(=O)[C@H](C)N)CSSC[C@@H](C(=O)NCC(N)=O)NC(=O)[C@H](CC(=O)O)NC(=O)[C@H](CCC(N)=O)NC(=O)[C@H](Cc2ccccc2)NC(=O)[C@H](Cc2ccccc2)NC(=O)CNC1=O
notes: EE-02 with E3D
B5: EE-37 (peptide)
peptide: ACEMGYYQDCG
HELM: PEPTIDE1{A.C.E.M.G.Y.Y.Q.D.C.G.[am]}$PEPTIDE1,PEPTIDE1,2:R3-10:R3$$$V2.0
SMILES: CSCC[C@@H]1NC(=O)[C@H](CCC(=O)O)NC(=O)[C@@H](NC(=O)[C@H](C)N)CSSC[C@@H](C(=O)NCC(N)=O)NC(=O)[C@H](CC(=O)O)NC(=O)[C@H](CCC(N)=O)NC(=O)[C@H](Cc2ccc(O)cc2)NC(=O)[C@H](Cc2ccc(O)cc2)NC(=O)CNC1=O
notes: EE-02 with F6Y and F7Y
B6: EE-35 (ACEMGFYQDCG) (peptide)
peptide: ACEMGFYQDCG
HELM: PEPTIDE1{A.C.E.M.G.F.Y.Q.D.C.G.[am]}$PEPTIDE1,PEPTIDE1,2:R3-10:R3$$$V2.0
SMILES: CSCC[C@@H]1NC(=O)[C@H](CCC(=O)O)NC(=O)[C@@H](NC(=O)[C@H](C)N)CSSC[C@@H](C(=O)NCC(N)=O)NC(=O)[C@H](CC(=O)O)NC(=O)[C@H](CCC(N)=O)NC(=O)[C@H](Cc2ccc(O)cc2)NC(=O)[C@H](Cc2ccccc2)NC(=O)CNC1=O
notes: EE-02 with F7Y
B7: EE-40 (peptide)
peptide: ACEMGFFGDCG
HELM: PEPTIDE1{A.C.E.M.G.F.F.G.D.C.G.[am]}$PEPTIDE1,PEPTIDE1,2:R3-10:R3$$$V2.0
SMILES: CSCC[C@@H]1NC(=O)[C@H](CCC(=O)O)NC(=O)[C@@H](NC(=O)[C@H](C)N)CSSC[C@@H](C(=O)NCC(N)=O)NC(=O)[C@H](CC(=O)O)NC(=O)CNC(=O)[C@H](Cc2ccccc2)NC(=O)[C@H](Cc2ccccc2)NC(=O)CNC1=O
notes: EE-02 with Q8G
B8: EE-21 (peptide)
peptide: ACELGFFQDCG
HELM: PEPTIDE1{A.C.E.L.G.F.F.Q.D.C.G.[am]}$PEPTIDE1,PEPTIDE1,2:R3-10:R3$$$V2.0
SMILES: CC(C)C[C@@H]1NC(=O)[C@H](CCC(=O)O)NC(=O)[C@@H](NC(=O)[C@H](C)N)CSSC[C@@H](C(=O)NCC(N)=O)NC(=O)[C@H](CC(=O)O)NC(=O)[C@H](CCC(N)=O)NC(=O)[C@H](Cc2ccccc2)NC(=O)[C@H](Cc2ccccc2)NC(=O)CNC1=O
notes: EE-02 with M4L
B9: EE-20 (peptide)
peptide: ACEIGFFQDCG
HELM: PEPTIDE1{A.C.E.I.G.F.F.Q.D.C.G.[am]}$PEPTIDE1,PEPTIDE1,2:R3-10:R3$$$V2.0
SMILES: CC[C@H](C)[C@@H]1NC(=O)[C@H](CCC(=O)O)NC(=O)[C@@H](NC(=O)[C@H](C)N)CSSC[C@@H](C(=O)NCC(N)=O)NC(=O)[C@H](CC(=O)O)NC(=O)[C@H](CCC(N)=O)NC(=O)[C@H](Cc2ccccc2)NC(=O)[C@H](Cc2ccccc2)NC(=O)CNC1=O
notes: EE-02 with M4I
B10: EE-41 (ACEMGFFLDCG) (peptide)
peptide: ACEMGFFLDCG
HELM: PEPTIDE1{A.C.E.M.G.F.F.L.D.C.G.[am]}$PEPTIDE1,PEPTIDE1,2:R3-10:R3$$$V2.0
SMILES: CSCC[C@@H]1NC(=O)[C@H](CCC(=O)O)NC(=O)[C@@H](NC(=O)[C@H](C)N)CSSC[C@@H](C(=O)NCC(N)=O)NC(=O)[C@H](CC(=O)O)NC(=O)[C@H](CC(C)C)NC(=O)[C@H](Cc2ccccc2)NC(=O)[C@H](Cc2ccccc2)NC(=O)CNC1=O
notes: EE-02 with Q8L
B11: EE-30 (ACEMGYFQDCG) (peptide)
peptide: ACEMGYFQDCG
HELM: PEPTIDE1{A.C.E.M.G.Y.F.Q.D.C.G.[am]}$PEPTIDE1,PEPTIDE1,2:R3-10:R3$$$V2.0
SMILES: CSCC[C@@H]1NC(=O)[C@H](CCC(=O)O)NC(=O)[C@@H](NC(=O)[C@H](C)N)CSSC[C@@H](C(=O)NCC(N)=O)NC(=O)[C@H](CC(=O)O)NC(=O)[C@H](CCC(N)=O)NC(=O)[C@H](Cc2ccccc2)NC(=O)[C@H](Cc2ccc(O)cc2)NC(=O)CNC1=O
notes: EE-02 with F6Y
B12: EE-31 (peptide)
peptide: ACEMGWFQDCG
HELM: PEPTIDE1{A.C.E.M.G.W.F.Q.D.C.G.[am]}$PEPTIDE1,PEPTIDE1,2:R3-10:R3$$$V2.0
SMILES: CSCC[C@@H]1NC(=O)[C@H](CCC(=O)O)NC(=O)[C@@H](NC(=O)[C@H](C)N)CSSC[C@@H](C(=O)NCC(N)=O)NC(=O)[C@H](CC(=O)O)NC(=O)[C@H](CCC(N)=O)NC(=O)[C@H](Cc2ccccc2)NC(=O)[C@H](Cc2c[nH]c3ccccc23)NC(=O)CNC1=O
notes: EE-02 with F6W
B13: EE-36 (peptide)
peptide: ACEMGFWQDCG
HELM: PEPTIDE1{A.C.E.M.G.F.W.Q.D.C.G.[am]}$PEPTIDE1,PEPTIDE1,2:R3-10:R3$$$V2.0
SMILES: CSCC[C@@H]1NC(=O)[C@H](CCC(=O)O)NC(=O)[C@@H](NC(=O)[C@H](C)N)CSSC[C@@H](C(=O)NCC(N)=O)NC(=O)[C@H](CC(=O)O)NC(=O)[C@H](CCC(N)=O)NC(=O)[C@H](Cc2c[nH]c3ccccc23)NC(=O)[C@H](Cc2ccccc2)NC(=O)CNC1=O
notes: EE-02 with F7W
B14: EE-39 (ACEMGFFKDCG) (peptide)
peptide: ACEMGFFKDCG
HELM: PEPTIDE1{A.C.E.M.G.F.F.K.D.C.G.[am]}$PEPTIDE1,PEPTIDE1,2:R3-10:R3$$$V2.0
SMILES: CSCC[C@@H]1NC(=O)[C@H](CCC(=O)O)NC(=O)[C@@H](NC(=O)[C@H](C)N)CSSC[C@@H](C(=O)NCC(N)=O)NC(=O)[C@H](CC(=O)O)NC(=O)[C@H](CCCCN)NC(=O)[C@H](Cc2ccccc2)NC(=O)[C@H](Cc2ccccc2)NC(=O)CNC1=O
notes: EE-02 with Q8K
B15: EE-22 (peptide)
peptide: ACEXGFFQDCG
modifications: norleucine (Nle) at position 4; free N-terminal amine; C-terminal amide; disulphide bond between Cys2 and Cys10
notes: EE-02 with M4 replaced by norleucine
B16: PHAGESOL (KKRYSRDQLVAL) (peptide)
peptide: KKRYSRDQLVAL
notes: Phage-derived linear peptive with the canonical motif; also called PHAGSOL; PhageSol peptide

Results on 16 molecules are retold here after patent US20220242906A1 (AGENCY FOR SCIENCE TECHNOLOGY AND RESEARCH, published 2022).

T1 sequence (P06730 2-217 limits assumed): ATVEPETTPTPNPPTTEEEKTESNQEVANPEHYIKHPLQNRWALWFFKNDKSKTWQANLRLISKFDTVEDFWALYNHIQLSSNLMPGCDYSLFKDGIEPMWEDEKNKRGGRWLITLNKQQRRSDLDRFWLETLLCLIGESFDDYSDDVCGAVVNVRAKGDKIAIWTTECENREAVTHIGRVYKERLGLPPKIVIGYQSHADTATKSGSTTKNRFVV

One experiment concerns the target T1, elongation initiation factor 4E (eIF4E) (UniProt P06730 2-217, limits assumed).
T1 construct: mature; In SPR it was amine-coupled to a CM5 chip with m7GTP present; also called full-length eIF4E; GS-eIF4E (biotinylated form used only for phage panning)
Put plainly: SPR (Biacore T100), eIF4E immobilised on CM5 chip, peptide as analyte. How it is done:
Running buffer consisted of 10 mM Hepes pH 7.6, 0.15 M NaCl, and 0.1% Tween20. Stock/DMSO diluted peptide solutions were diluted into 1.03× running buffer to make a peptide solution with 3% DMSO final concentration. […] Surface Plasmon resonance experiments were performed on a Biacore T100 machine.
Pure eIF4E was immnobilized on a CM5 sensor chip. The CM5 chip was conditioned with a 6 s injection of 100 mM HCL, followed by a 6 s injection of 0.1% SDS and completed with a 6 s injection of 50 mM NaOH at a flow rate of 100 μl/min. Activation of the sensor chip surface was performed with a mixture of NHS (115 mg ml⁻¹) and EDC (750 mg ml⁻¹) for 7 min at 10 μl min⁻¹. Purified eIF4E was diluted with 10 mM sodium acetate buffer (pH 5.0) to a final concentration of 0.5 μM with m⁷GTP present in a 2:1 ratio in order to stabilize eIF4E. The amount of eIF4E immobilized on the activated surface was controlled by altering the contact time of the protein solution and was approximately 1000 RU. After the immobilization of the protein, a 7-min injection (at 10 μl min⁻¹) of 1 M ethanolamine (pH 8.5) was used to quench excess active succinimide ester groups.
Six buffer blanks were first injected to equilibrate the instrument fully and then a solvent correction curve was performed followed by a further two blank injections. […] Using a flow rate of 50 μl/min, compounds were injected for 60 s and dissociation was monitored for 180 s. The data collection rate was 10 Hz. Kds were determined using the BiaEvaluation software (Biacore) and calculated from both the response of the eIF4E coated CM5 chips at equilibrium and also kinetically from the dissociation and association phase data for each of the peptides. Both the equilibrium and kinetic data were fitted to 1:1 binding models. Each individual peptide Kd was determined from three separate titrations. Within each titration at least two concentration points were duplicated to ensure stability and robustness of the chip surface.
Molecule B1 yielded a Kd of 4200 nM.

Consider B2, for which the “Fold change (KD against EE-2)” value was 0.4 fold and binding was characterised by a dissociation constant (Kd) of 79 nM. On to B3, for which binding was put at a Kd of 35000 nM. On the same count and under the same terms, then B4, with 26000 nM; and B5, with 350 nM. B6 came in with a Kd of 137 nM. For the molecule B7, the “Fold change (KD against EE-2)” value came out at 1.9 fold and binding was characterised by a dissociation constant (Kd) of 400 nM. Molecule B8 came in with a Kd of 2500 nM.

Molecule B9 returned a Kd of 1600 nM. Against the preceding molecule, the Kd is about 1.6-fold lower.

B10: the “Fold change (KD against EE-2)” value was 0.9 fold and the Kd was 190 nM.

As to B11, the Kd is 85 nM.

The molecule B12 had a Kd of 5900 nM. This Kd is about 69-fold higher than that of the molecule before. Regarding B13, the affinity, expressed as Kd, was 2600 nM. Turning to B14, the “Fold change (KD against EE-2)” value came to 0.5 fold and the Kd was found to be 109 nM. The molecule B15 came in with a Kd of 520 nM.

In another experiment the target is T1, elongation initiation factor 4E (eIF4E). Nature of the experiment: competitive fluorescence anisotropy, panel 'Peptide Interaction Site': displacement of the FAM labelled tracer peptide …-(FAM) (50 nM) from eIF4E (200 nM) [cont'd) B]. How it is done:
Apparent Kd values were then determined for a variety of molecules via competitive anisotropy experiments.
[L]ₛₜ and [L]ₜ denote labeled ligand and total unlabeled ligand input concentrations, respectively. Kd2 is the dissociation constant of the interaction between the unlabelled ligand and the protein. In all competitive types of experiments, it is assumed that [P]ₜ>[L]ₛₜ, otherwise considerable amounts of free labeled ligand would always be present and would interfere with measurements. Kd1 is the apparent Kd for the labeled peptide used in the respective experiment. […] Readings were carried out with a Envision Multi-label Reader (PerkinElmer). […] All titrations were carried out in triplicate. Curve-fitting was carried out using Prism 4.0 (GraphPad).
As to B16, the “IC50 (read off the curve)” value is about 400 nM.
